According to US20200308299A1, “ANTI-GPC-1 ANTIBODY” (National University Corporation Kochi University, priority 2017, published 2020):

Columns and labels:
[1] = system: TE14 cells; assay: ADC assay combining anti-GPC-1 antibody and MMAF binding secondary antibody, TE14 cells; format: cell-based
Method in brief: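 TE14 […] cells (2000/well, RPMI1640 + 10% FBS) exposed to anti-GPC1 primary antibody (final 0–1.0 nM) plus 2 μg/ml MMAF-conjugated anti-mouse Fc Fab secondary for 6 days at 37° C, 5% CO2. Viability measured by CellTiter-Glo ATP luminescence.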

[2] = system: LLC-control-7 cells; assay: In vitro ADC assay, LLC-control-7 cells; format: cell-based; details: does not express mouse GPC-1, 72 hours
Description: An mGPC1 expression vector (pcDNA3.1-mGPC1) and control vector (pcDNA3.1V5/His) were transfected using Lipofectamine® 2000 into LLC cell strain (mouse lung cancer cell strain). Cells subjected to gene transfer were selected by adding G418 to a medium, and the formed colony was picked up. The expression of mGPC1 was analyzed by FACS using anti-GPC1 antibody clone 01a033. LLC-mGPC1-16 cells were established as an mGPC1 stable expression strain, and LLC-control-7 was established as the control.
Preparation of a conjugate of mouse anti-glypican-1 mAb (01a033), mouse IgG2a (biolegend #400224) as a control, and mc-vc-PAB-MMAF was commissioned to MORADEC. An anticancer agent was conjugated to a cysteine residue via a cleavable linker. The DAR (drug-antibody ratio) was as follows. […]
RPMI1640+10% FBS+100 U/ml penicillin+100 μg/ml streptomycin was used as the medium. […] (3) After 72 hours of culturing, CellTiter-Glo™ Luminescence Cell Viability Assay reagent (Promega) was added and mixed at 100 μL/well. (4) Measurements were taken with a plate reader. […]
The IC50 values were calculated from the following equation (Hossain M M, Hosono-Fukao T, Tang R, Sugaya N, van Kuppevelt T H, Jenniskens G J, Kimata K, Rosen S D, Uchimura K (2010) Direct detection of HSulf-1 and HSulf-2 activities on extracellular heparan sulphate and their inhibition by PI-88. Glycobiology […]: 175-186.) […]

[3] = system: pancreatic cancer PDX; assay: In vivo efficacy test on GPC1 ADC using pancreatic cancer PDX in NOG mice; design: species or system mouse; details: 1, 3, 10 mg/kg iv day 0, 4, 8, 12
Excerpt: Pancreatic cancer PDX (Patient-derived tumor xenograft) refers to residual tissue from pathological analysis of cancer tissue upon pancreatic cancer surgery from a pancreatic cancer patient. This Example used a pancreatic cancer model created by subcutaneously grafting in superimmunodeficient mice such as NOG mice. While human tumor hardly survives in SCID mice after grafting, NOG mice have more severe immunodeficiency than SCID mouse, so that human tumor is more likely to survive. For this reason, a PDX model has an environment that is closer to human tumor than a mouse model to which a cell strain is grafted. Thus, information obtained with a PDX model is useful in evaluating drug efficacy.
FIG. 24 schematically depicts the test in this Example. Specifically, pancreatic cancer PDX was subcutaneously grafted into 6 week old female NOG mice. […] The tumor volume and body weight were measured on day 0, day 4, day 8, day 12, day 16, day 20, day 24, and day 28.

[4] = system: ME180 cell strain; assay: In vivo efficacy test on GPC1 ADC using cervical cancer cell strain ME180 in SCID mice; design: species or system mouse
Description: Specifically, 1.0×10^6 cells of ME180 cell strain were subcutaneously grafted into female SCID mice. […] The tumor volume and body weight were measured on day 0, day 4, day 8, day 12, day 16, day 20, day 24, day 28, and day 32.
After subcutaneous tumorigenesis of ME180, (1) PBS, (2) control ADC at 10 mg/kg, and (3) GPC1-ADC at 10 mg/kg were administered once into the tail vein. The tumor was extracted after 24 hours. After deparaffinization of a section of a paraffin embedded tissue, the slice was dehydrated with alcohol. Immunohistochemical staining on Phospho-Histon H3 (Ser10) was performed by using an anti-Phospho-Histon H3 (Ser10) antibody (Cell Signaling Technology: #9701) and ChemMate Envision kit HRP 500T (Dako: K5007).

[5] = system: BxPC3 cell strain; assay: In vivo efficacy test on GPC1 ADC using pancreatic cancer cell strain BxPC3 in SCID mice; design: species or system mouse
Description: Specifically, 5.0×10^6 cells of the BxPC3 cell strain were subcutaneously grafted into female SCID mice. […] The tumor volume and body weight were measured on day 0, day 4, day 8, day 12, day 16, day 20, day 24, day 28, day 32, and day 36.
After subcutaneous tumorigenesis of BxPC3, (1) PBS, (2) control ADC at 10 mg/kg, and (3) GPC1-ADC at 1 mg/kg, 3 mg/kg, and 10 mg/kg were administered once into the tail vein. The tumor was extracted after 24 hours. After deparaffinization of a section of a paraffin embedded tissue, the slice was dehydrated with alcohol.
Immunohistochemical staining on Phospho-Histon H3 (Ser10) was performed using an anti-Phospho-Histon H3 (Ser10) antibody (Cell Signaling Technology: #9701) and ChemMate Envision kit HRP 500T (Dako: K5007).

[6] = primary antibody plus MMAF secondary antibody
[7] = any dosage tested (1, 3, 10 mg/kg)

B1: clone 01a033 (antibody)
heavy: QVQLKQSGPELVKPGASVKISCKASGYSFTGYYMHWVKQSPEKSLEWIGEINPSTGDTTYNQKFKAKATLTVDKSSSTAYMQLKSLTSEDSAVYYCAREKRDDGVFAYWGQGTLVTVSSAKTTAPSVYPLAPVCGDTTGSSVTLGCLVKGYFPEPVTLTWNSGSLSSGVHTFPAVLQSDLYTLSSSVTVTSSTWPSQSITCNVAHPASSTKVDKKIEPRGPTIKPCPPCKCPAPNLLGGPSVFIFPPKIKDVLMISLSPIVTCVVVDVSEDDPDVQISWFVNNVEVHTAQTQTHREDYNSTLRVVSALPIQHQDWMSGKEFKCKVNNKDLPAPIERTISKPKGSVRAPQVYVLPPPEEEMTKKQVTLTCMVTDFMPEDIYVEWTNNGKTELNYKNTEPVLDSDGSYFMYSKLRVEKKNWVERNSYSCSVVHEGLHNHHTTKSFSRTPGK
light: DIVMSQSPKSMSMSVGERVALSCKASENVGTYVSWYQQKPEQSPKLLIYGASNRYTGVPDRFTGSGSATDFTLTISSVQAEDLADYYCGQSYSYPLTFGAGTKLELKRADAAPTVSIFPPSSEQLTSGGASVVCFLNNFYPKDINVKWKIDGSERQNGVLNSWTDQDSKDSTYSMSSTLTLTKDEYERHNSYTCEATHKTSTSPIVKSFNRNEC
ADC activity ([1]; primary antibody plus Fab-aMFc-CL-MMAF secondary antibody 2 μg/ml, 6 days): highest ADC activity
EC50 values against TE14 cells [1, 6]: excellent EC50 values
antitumor effect on TE14 [1, 6]: particularly potent antitumor effect
effect of suppressing growth against LLC-control-7 [2]: low effect of suppressing growth

B2: GPC1 ADC (conjugate)
heavy: B1 heavy
light: B1 light
antitumor effect (tumor volume, tumor weight day 28) [3]: exhibited an antitumor effect
antitumor effect (tumor volume, tumor weight day 32) ([4]; 1 mg/kg iv day 0, 4, 8, 12): slight antitumor effect
antitumor effect (tumor volume, tumor weight day 32) ([4]; 3 mg/kg iv day 0, 4, 8, 12): slight antitumor effect
antitumor effect (tumor volume, tumor weight day 32) ([4]; 10 mg/kg iv day 0, 4, 8, 12): significant antitumor effect
tumor volume ([4]; 10 mg/kg iv day 0, 4, 8, 12): tumor volume was significantly reduced
change in the body weight [4, 7]: significant change in the body weight was not observed
G2/M phase arrest in tumor tissue (Phospho-Histon H3 (Ser10) staining) ([4]; single tail vein dose 10 mg/kg, tumor extracted after 24 hours): resulted in G2/M phase arrest
tumor volume ([5]; 3 mg/kg iv day 0, 4, 8, 12): tumor volume was significantly reduced
tumor volume ([5]; 10 mg/kg iv day 0, 4, 8, 12): tumor volume was significantly reduced
change in the body weight [5, 7]: significant change in the body weight was not observed
antitumor effect (tumor volume, tumor weight day 36) ([5]; iv day 0, 4, 8, 12, anti-GPC1 ADC 1, 3, 10 mg/kg (all groups), control ADC 10 mg/kg): significant antitumor effect
G2/M phase arrest in tumor tissue (Phospho-Histon H3 (Ser10) staining) ([5]; single tail vein dose 1, 3, 10 mg/kg, tumor extracted after 24 hours): resulted in G2/M phase arrest
